Measurements: the nanobody polyreactivity screen of Harvey et al. (2022)

Test: yeast display, Sf9 membrane polyspecificity reagent, FACS + sequencing; frameworks hold sequencing errors
How it was run: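 Polyreactivity labels are assigned by the sorting gate from which each nanobody was recovered. The gates were low and high (top ~1%), set on anti-HA fluorescence for expression and streptavidin fluorescence for reagent binding. Before sorting, galactose-induced (36–48 hours) yeast display cells were stained for 1 hour at 4 °C with 10% biotinylated, detergent-solubilized Sf9 membrane reagent.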

Sequence | polyreactivity (PSR sort gate)
QVQLVESGGGLVQAGGSLRLSCAASGSTFVPKDMGWNRQAPGKERELVAAISYSGGSTYYADSVKGRFTISRDNAKNTVYLQLNSLKPEDTAVDYCNAEGWYYLTEYGYWGQGTQVTVSS | low polyreactivity
QVQLVESGGGLVQAGGSLRLSCAASGSTFVPNAMGWYRQAPGKERELVAALTFSGGTTYYADSVKGRFTISRDNAKNTVYLQMNSLKPEGTAVYYCAADYFSNLWWSGHAWRYYYWGQGTQVTVSS | low polyreactivity
QVQLVESGGGLVQAGGSLRLSCAASGSTFVPNTMGWYRQAPGKERELVAAITYSGGSTYYADSVKGRFTISRDNAKNTVYLQMNSLKPEDTAVYYCAAEGTTWYYDMDYWGQGTQVTVSS | low polyreactivity
QVQLVESGGGLVQAGGSLRLSCAASGSTFVPYALGWYRQAPGKERELVAAITTSGGNTYYADSVKGRFTISRDNAKNTVYLQMNSLKPEDTAVYYCAADTFRRFDYWGQGTQVTVSS | low polyreactivity
QVQLVESGGGLVQAGGSLRLSCAASGSTFVPYAMGWSSQAPGKERELVADISWSGGSTYYADSVKVRFTISRDNAKNTVYLQMNSLKPEDTAVYYCAARSIYKSKYDYWGQGTQVTVSS | high polyreactivity
QVQLVESGGGLVQAGGSLRLSCAASGSTFVPYAMGWYRQAPGKERELVAAISGTGGRTSYADSVKGRFTISRDNAKNTVYLQMNSLKPEDTAVYYCAAADGIYARYFFSRFPRFDYWGQGTQVTVSS | low polyreactivity
QVQLVESGGGLVQAGGSLRLSCAASGSTFVPYAMGWYRQAPGKERELVAGITFSGGSTYYADSVKGRFTIPRDNAKNTVYLQMNSLKPEDTAVYYCARAGGYPLSRYGYWGQGTQVTVSS | high polyreactivity
QVQLVESGGGLVQAGGSLRLSCAASGSTFVPYAMGWYRQAPGKERELVAVITRGSTNYADSVKGRFTISRDNAKNTVYLQMNRLKPEDTAVYYCAVDVARGVLDYSFDSWGQGTQVTVSS | high polyreactivity
QVQLVESGGGLVQAGGSLRLSCAASGSTFVQYAMGWYRQAPGKERELVAAITSGGRTNYADSVKGRFTISRDNAKYTVYLQMNSLKPEDTAVYYCAARYGSNSPRGYEYYYWGQGTQVSVSS | low polyreactivity
QVQLVESGGGLVQAGGSLRLSCAASGSTFVQYAMGWYRQAPGKERELVAAITSGGRTNYADSVNGRFTISRDNAKNTVYLQMNSLKPEDTAVYYCAARYGSNSPRRYEYYYWGQGTQVTVSS | low polyreactivity
QVQLVESGGGLVQAGGSLRLSCAASGSTFVQYVMGWYRQAPGKERELVAAISSSGGSTYYADSVKGRFTISRDNAKNTVYLQMNSLKPEDTAVYDCAARRLPRPWTSTSDYWGQGTQVTVSS | high polyreactivity
QVQLVESGGGLVQAGGSLRLSCAASGSTFVQYVMGWYRQAPGKERELVAAISSSGGSTYYADSVKGRFTISRDNAKNTVYLQMNSLKPEDTAVYYCAAYYFVAQARYDYWGQGTQVTVSS | high polyreactivity
QVQLVESGGGLVQAGGSLRLSCAASGSTFVRNAMGWYRQAPGKERELVAAISRSGGRTYYADSVKGRFTISRDNAKNTVYLQMNSLKPEDNAVYYCNAVLGYYSYDYWGQGTQVTVSS | high polyreactivity
QVQLVESGGGLVQAGGSLRLSCAASGSTFVRYAMGWYRQAPGKEREFVAAISKRGGSTYYADSVKGRFTISRDIAKNTVYLQMNSLKPEDTAVYYCATYLLRDAPGLHQVGYWGQGTQVTVSS | high polyreactivity
QVQLVESGGGLVQAGGSLRLSCAASGSTFVRYAMGWYRQAPGKERELVAAISKSGGSTYYADSVKGRFTISRDNAKNTVYLQMNSLKPEDTAVYYCNADVYKNSKFRIMGYWGQGTQVTVSS | high polyreactivity
QVQLVESGGGLVQAGGSLRLSCAASGSTFVRYAMGWYRQAPGKEWELVARISGRSGSTYYADSEKGRFTISRDNAKNTVYLQMNSLKPEDTAVYFCAARAWYRVYAYDVWGQGTQVTVSS | high polyreactivity
QVQLVESGGGLVQAGGSLRLSCAASGSTFVRYVMGWYRQAPGKERELVAAISRRGGSTYYADSVKGRFTIARDNAKNTVYLQMNSLKPDDTAVYYCAAVYRLRGAFSRGYWGQGTQVTVSS | high polyreactivity
QVQLVESGGGLVQAGGSLRLSCAASGSTFVRYVMGWYRQAPGKERELVAAISRRGGSTYYADSVKGRFTISRDHAKNTVYLQMNSLKPEDTAVYYCARTVGYRTLLESDSWGQGTQVTVSS | high polyreactivity
QVQLVESGGGLVQAGGSLRLSCAASGSTFVSNAMGWYRQAPGKERELVAAISTSGGSTYYADSVKGRFTISRDNAKNTVYLQMNSLKPEDTAVYYCAKLLARGFRIWQDYDYWGQGTEVTVSS | low polyreactivity
QVQLVESGGGLVQAGGSLRLSCAASGSTFVSYAMGWYRQAPGKERELVAAISWSGGSTYYADSVKGRFTISRDNAKNTVYLQMNSLKTEDTAVYYCAAELDWWYDYWGQGTQVTVSS | high polyreactivity
QVQLVESGGGLVQAGGSLRLSCAASGSTFVSYAMGWYRQAPGKERELVAAITWRGDSTYYADSVKGRFTISRDNAKNTVYLQMNSLKPEDTAVYYCAADGRSWRYYSPYYYWGQGTQVTVSS | low polyreactivity
QVQLVESGGGLVQAGGSLRLSCAASGSTFVSYAMGWYRQAPGKERELVAAITWRGDSTYYADSVKGRFTLSRDNAKNTVYLQMNSLKPEDTAVYYCAADGRSWRYYSPYYYWGQGTQVTVSS | low polyreactivity

Sequence | polyreactivity (PSR sort gate)
QVQLVESGGGLVQAGGSLRLSCAASGSTFVTYAMGWYRQAPGKEREFVAAISRTGGSTYYADSVKGRFTISRDNAKYTVYLQMNSLKPEDSAVYYCNRVGRGYSHNQYDLGYWGQGTLVTVSS | low polyreactivity
QVQLVESGGGLVQAGGSLRLSCAASGSTFVTYTMGWYRQAPGKERELVAAISWSGDTTYADSVKGRFTISRDNAKNTVYLQMNSLKPEDTAVYYCAADDDWSGVEFDYWGQGTQVTVSS | low polyreactivity
QVQLVESGGGLVQAGGSLRLSCAASGSTFVVNAMGCYRQAPGKERELVAAITQSGGSTFYADSVKGRFTISRDNAKNTVYLQMNSLKPEDTAVYYWGQGTQVTVSS | low polyreactivity
QVQLVESGGGLVQAGGSLRLSCAASGSTFVVNAMGWYRQAPGKERELVAAIRSGSSTNYADSVKGRFTISRDNAKNTVYLQMNSLKPEDTAVYYCAARSKYTHSRQSDYWGQGTQVTVSS | low polyreactivity
QVQLVESGGGLVQAGGSLRLSCAASGSTFVWKAMGWYRQAPGKERELVAAISSSGGITYYADSVKGRFTISRDNAKNPVYLQMNSLKPEDTAVYYCAAERDDDWVNYWGQGTQVTVSS | low polyreactivity
QVQLVESGGGLVQAGGSLRLSCAASGSTFVWNAMGGYRQAPGKERELVAAITNDGRTNYADSVKGRFTISRDNAKNTVYLQMNSRKPEDTAVYYCNADGYNSYWWNYYWGQGTQVTVSS | low polyreactivity
QVQLVESGGGLVQAGGSLRLSCAASGSTFVWNAMGWYRQAPGKERELVATITLSTGSSYYADSVKGRFTISRDNAKNTVYLQMNSLKPEDTAVYYCNTEIYVDIISDYGYWGQGTQLTVSS | low polyreactivity
QVQLVESGGGLVQAGGSLRLSCAASGSTFVWYAKGWYIQAPGKERELVAAINFGGTTYYADSVKGRFTISRDNAKNTVYLQMNSLKPEETAVYYCATEYDYGSWFPDGWGIFDYWGQGTQVTVSS | low polyreactivity
QVQLVESGGGLVQAGGSLRLSCAASGSTFVWYAMGRYRLAPGKERELVAVIDWSGGSTSYADSVKGRFTISRDNAKNTVYLQMNSLKPEDTAVYYCNKGSSLFHWYYHWGQGTQVTVSS | low polyreactivity
QVQLVESGGGLVQAGGSLRLSCAASGSTFVYNAMGWYRQAPGKEREFVAVINWSGGRTYADSVKGRFTISRDNAKNTVYLQMNSLKPEDTAVYYCNAERRTYRVALQYRRYDYWGQGTQVTVSS | high polyreactivity
QVQLVESGGGLVQAGGSLRLSCAASGSTFVYNAMGWYRQAPGKERELVAAITVIGGRTYYADSVKGRFTISRDNAKNTVYLQMNSLKPEDTAVYYCAAVTYWFWPGMDYWGQGTQVTVSS | low polyreactivity
QVQLVESGGGLVQAGGSLRLSCAASGSTFVYNAMGWYRQAPGKERELVAGISSSGGRTYYADSVKGRFTISRDNAKNTVYLQMNSLKPEDTAVYYCATGYRQGEYDYWGQGTQVTVSS | low polyreactivity
QVQLVESGGGLVQAGGSLRLSCAASGSTFVYNAMGWYRQAPGKERELVAGISSSGGRTYYADSVKGRFTISRDNAKNTVYLQMNSLKPEDTAVYYCNVVTYRRFDYWGQGTQVTVSS | low polyreactivity
QVQLVESGGGLVQAGGSLRLSCAASGSTFVYNDMGWYRQAPGKEREFVAVINWSGGRTYADSVKGRFTISRDNAKNTVYLQMNSLKPEDTAVYYCNARRRTGYRPAMDYWGQGTQVTVSS | high polyreactivity
QVQLVESGGGLVQAGGSLRLSCAASGSTFVYNTMGWYRQAPGKERELVAAISKSGTNTFYADSVKGRFTISRDNAKNTVYLQMNSLKPEDTAVYYCAVRSVPRWFTELDYWGQGTQVTVSS | low polyreactivity
QVQLVESGGGLVQAGGSLRLSCAASGSTFVYYAMGWYRQAPGKEREFVAGITRRTGSTYYADSVKGRFTISRDNAKNTVYLQMNSLKPEDTAVYYCAKRDARATPFGYWGQGTQVTVSS | high polyreactivity
QVQLVESGGGLVQAGGSLRLSCAASGSTFVYYAMGWYRQAPGKERELVAAISYSGGRTYYADSVKGRFTISRDNAKNTVYLQMNSLKQEDTAVYYCAAAYVKFYGYSAEYDYWGQGTQVTVSS | low polyreactivity
QVQLVESGGGLVQAGGSLRLSCAASGSTFVYYAMGWYRQAPGKERELVATINYNGGSTSYADSVKGRFTISRDNEKNTVYLQMNSLKPEDTAVYYCAKDRYYTWGDYWGQGTQVTVSS | low polyreactivity
QVQLVESGGGLVQAGGSLRLSCAASGSTFVYYAMGWYRQAPGKERELVAVISDDGGTYYADSVKGRFSISRDNAKNTVYLQMNSLKPEDTAVYYCAKDYYGGAYYWYNDRSGDYWGQGTQVTVSS | low polyreactivity
QVQLVESGGGLVQAGGSLRLSCAASGSTFVYYAMGWYRQAPGTERELVAAITGSVDSTYYADSVKGRFTISRDNAKNPVYLQMNSLQPEDTAVYYCAADTYSTYWGQGTQVTVSS | low polyreactivity
QVQLVESGGGLVQAGGSLRLSCAASGSTFWANAMGWYRQAPGKERELVAAITSTGITYYADSVKGRFTISRDNAKNTVYLQMNSLKPEDTAVYYCNTRGTYRYDYWGQGTQVTVSS | low polyreactivity
